Test results as given in PMC9891256.

Biological target: KREPA2 αH1 group mutant of the negatively charged glutamic and aspartic acid residues (to alanine) (T. brucei)
Assay: pull-down

kinetoplastid RNA editing ligase 1 (KREL1) full-length (51-469) (enzyme)
decrease in binding efficiency against the wild type: 75%
